Laboratory results taken from publication PMC314469, “Protein Interaction Networks by Proteome Peptide Scanning” (PLoS Biology, 2004).

T1: Abp1 SH3 (ABP1_YEAST), P15891
T1 chain: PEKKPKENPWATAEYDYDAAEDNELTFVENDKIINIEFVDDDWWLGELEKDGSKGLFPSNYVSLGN


Biological target: T1, Abp1 SH3 (ABP1_YEAST), P15891
Assay: SPOT array

| Binder | normalised SPOT signal, Boehringer light units (BLU); mean over the file's lines of this peptide |
| --- | --- |
| FEKGPRMPSRGRP [YPR171W 143-155] | 2280 |
| FASKVNYPVLIRP [YJR109C 723-735] | 156 |
| ETVTNSGGLQPLKP [YOR329C 474-487] | 54.3 |
| FEEPEDFLPPPPKP [YLR285W 14-27] | 55.3 |
| FKRAGLIPIRLRP [YDR072C 45-57] | 411 |
| EVPMFVNPANAKP [YHL038C 181-193] | 70.8 |
| ESFRERPLEPPRKP [YDR448W 139-152] | 675 |
| FNGNSRLMMIPKKP [YDL073W 594-607] | 4150 |
| FLNDVEEEESPVKP [YLL021W 576-589] | 123 |
| FKRSIGASHAPLKP [YER161C 100-113] | 145 |
| FFPNVNSPSVNKP [YNR045W 370-382] | 101 |
| FQLIYFFPDLIKP [YOL107W 265-277] | 28.8 |
| ESASHETPTDLRP [YKL204W 262-274] | 147 |
| ERRKQLKKQGPKRP [YKL032C 351-364] | 77.9 |
| FPPNEAPMLSPQRP [YLR006C 159-172] | 35 |
| ESFSSGSLSPPSRP [YDR348C 88-101] | 48.8 |
| FNVQDVRPDLFRP [YDR080W 297-309] | 100 |
| ESKMSLAPHEYKP [YGR097W 219-231] | 97.4 |
| FGLEQISPAQKKP [YDL217C 6-18] | 63 |
| FAEKVGYPVLVRP [YJL130C 1124-1136] | 85.3 |

| Binder | normalised SPOT signal, Boehringer light units (BLU); mean over the file's lines of this peptide |
| --- | --- |
| ETGVSIKNPRPSRP [YPR096C 4-17] | 615 |
| ETLWDLPPKFPEKP [YDR444W 182-195] | 55.6 |
| FNVPSQKPLNSKP [YHR103W 279-291] | 955 |
| FLSIHFPTDYPFKP [YBR082C 52-65] | 95.8 |
| ERLQSQPPRPPRP [YGR268C 21-33] | 10400 |
| FDGKPTATPSPFRP [YMR153W 197-210] | 101 |
| FNKTRFVPGSNKP [YPL272C 132-144] | 831 |
| ESKLSSLIIPPSKP [YJL193W 97-110] | 105 |
| FDYIVTREFRPTKP [YOR131C 125-138] | 83.2 |
| FEMVTEVPIPRRP [YGR156W 132-144] | 526 |
| EVVKILRESNPPRP [YJR010W 379-392] | 39.2 |
| ETELGHVPLVERP [YDL079C 472-484] | 136 |
| FNTPVDSPSVSRP [YER040W 639-651] | 94.4 |
| ESLKLYYRHRPQKP [YOL164W 141-154] | 146 |
| FDKKNETPRKRKP [YBL046W 314-326] | 173 |
| FASDSLLDLSPIKP [YCL018W 111-124] | 73.8 |
| FPDWSMGPNSAKP [YPL089C 527-539] | 238 |
| FIQQMMDPSKAKP [YPL082C 1249-1261] | 230 |
| FQFLNNTPKMLKP [YLR190W 87-99] | 246 |
| ETQPIQNFQPPPKP [YBR108W 650-663] | 82.5 |

| Binder | normalised SPOT signal, Boehringer light units (BLU); mean over the file's lines of this peptide |
| --- | --- |
| FDSQFSAPFNGRP [YBL014C 791-803] | 168 |
| FLHGNTNAPTPLRP [YPR099C 84-97] | 63 |
| FFQLPPVSKDPNRP [YML061C 379-392] | 186 |
| EYKYSRPPYNFKP [YBR043C 498-510] | 155 |
| FKVMVANPRKSKP [YKL189W 299-311] | 2270 |
| ESIDASKPEKVKP [YFL025C 369-381] | 132 |
| ESLNLQFQAHPPKP [YKR050W 395-408] | 27.2 |
| ERPLPDLPSTIKP [YKR027W 750-762] | 106 |
| FSYPISSPINFKP [YPR164W 96-108] | 115 |
| FIDPSLRPIIVKP [YPR056W 253-265] | 10.5 |
| EYGHHARPDSKRP [YMR268C 2-14] | 61.2 |
| FDIVFPAPKGKRP [YBR034C 258-270] | 284 |
| FIDDLKQPKYVRP [YPL070W 96-108] | 48.4 |
| EYLDQKNPQKEKP [YDR293C 662-674] | 52.7 |
| FLDVLKIKPLPYKP [YER093C 581-594] | 316 |
| EVRKVYIPKVVKP [YJR143C 526-538] | 250 |
| ERSKNLIPPAFRP [YGL173C 598-610] | 488 |
| FINVSHSPLVPKP [YHR034C 60-72] | 76.6 |
| EVRDLWLSILPTKP [YBR115C 851-864] | 86.6 |
